Reference: patent publication US20100015126A1, “Methods of Binding of Cross-Beta Structures By Chaperones” (priority 2006, published 2010)

What was measured:
[1] = target: 25 kDa protein/immunoglobulin lambda chain/rheumatoid factor G9 light chain (lambda V3)/IGLC1 protein (human) (UniProt P0CG04); experiment: BiP-Sepharose pull-down, AL amyloidosis patient I plasma (B2), MS of urea eluate; may be indirect
[2] = target: Immunoglobulin lambda variable 3-25/V2-17 protein (Fragment) (human) (UniProt P01717); experiment: as above
[3] = target: Apolipoprotein E precursor/Apolipoprotein E/Apolipoprotein E3 (Fragment) (human) (UniProt P02649); experiment: as above
[4] = target: Fc fragment of IgG binding protein (IgGFc-binding protein precursor) (human) (UniProt Q9Y6R7); experiment: as above
[5] = target: Isoform Long of Antigen KI-67/Antigen KI-67 (human) (UniProt P46013); experiment: as above
[6] = target: Immunoglobulin heavy constant gamma 3 (G3m marker)/Ig gamma-3 chain C region (human) (UniProt P01860); experiment: as above
[7] = target: IGLC2 protein (immunoglobulin lambda C2)/Immunoglobulin lambda (human) (UniProt P0DOY2); experiment: as above
[8] = target: Histidine-rich glycoprotein precursor (human) (UniProt P04196); experiment: BiP-Sepharose pull-down, RA synovial fluid sample 1B, 1 M NaCl eluate, MS; may be indirect
[9] = target: Vitronectin precursor (Serum-spreading factor/S-protein) (human) (UniProt P04004); experiment: as above
[10] = target: Hypothetical protein DKFZp686I04196 (Fragment)/Immunoglobulin heavy constant gamma 2 (G2m marker)/Ig gamma-2 chain C region (human) [IgG part: P01859]; experiment: as above
[11] = target: Hypothetical protein/Heat shock 70 kDa protein 5 (glucose-regulated protein, 78 kDa = GRP78 = BiP = HSPA5), as identified in eluates (human) (UniProt P11021); experiment: BiP-Sepharose pull-down, RA patient IV synovial fluid (B6), MS of urea eluate; BiP may stem from the column
[12] = target: Heat shock 70 kDa protein 1L (human) (UniProt P34931); experiment: BiP-Sepharose pull-down, RA synovial fluid sample 3B, 1 M NaCl eluate, MS; may be indirect
[13] = target: Neutrophil defensin 1 precursor (human) (UniProt P59665); experiment: as above
[14] = target: Clusterin precursor (human) (UniProt P10909); experiment: as above
[15] = target: 25 kDa protein/immunoglobulin lambda chain/rheumatoid factor G9 light chain (lambda V3)/IGLC1 protein (human) (UniProt P0CG04); experiment: as above
[16] = target: FLJ00385 protein (Fragment), immunoglobulin heavy constant mu (human) (UniProt P01871); experiment: as above
[17] = target: IGKV1-5 protein, immunoglobulin kappa variable 1-5 (human) (UniProt P01602); experiment: as above
[18] = target: Apolipoprotein A-I precursor (human) (UniProt P02647); experiment: as above
[19] = target: IGHM protein, immunoglobulin heavy chain mu (heavy chain disease protein) (human) (UniProt P01871); experiment: as above
[20] = target: Isoform A of Proteoglycan-4 precursor (human) (UniProt Q92954); experiment: as above
[21] = target: Ig kappa chain V-IV region Len, immunoglobulin kappa variable 4-1 (human) (UniProt P06312); experiment: as above
[22] = target: Haptoglobin precursor (human) (UniProt P00738); experiment: as above
Histone H3.2 (human) = Histone H3.2 (human) (UniProt Q71DI3); experiment: as above
[23] = target: Isoform H17 of Myeloperoxidase precursor (human) (UniProt P05164); experiment: as above
[24] = target: Galectin-3-binding protein precursor (human) (UniProt Q08380); experiment: as above
[25] = target: Hypothetical protein/Heat shock 70 kDa protein 5 (glucose-regulated protein, 78 kDa = GRP78 = BiP = HSPA5), as identified in eluates (human) (UniProt P11021); experiment: BiP-Sepharose pull-down, RA synovial fluid sample 3B, 1 M NaCl eluate, MS; BiP may stem from the column
[26] = target: Heat shock 70 kDa protein 1L (human) (UniProt P34931); experiment: BiP-Sepharose pull-down, RA synovial fluid sample 2B, 1 M NaCl eluate, MS; may be indirect
[27] = target: fibronectin 1 isoform 4 preproprotein (human) (UniProt P02751); experiment: as above
[28] = target: FLJ00385 protein (Fragment), immunoglobulin heavy constant mu (human) (UniProt P01871); experiment: as above

Sequence of recombinant human BiP with C-terminal linker, FLAG-tag and His-tag (BiP-FLAG-His) (P11021 other isoform, or with tags, fused parts or gaps): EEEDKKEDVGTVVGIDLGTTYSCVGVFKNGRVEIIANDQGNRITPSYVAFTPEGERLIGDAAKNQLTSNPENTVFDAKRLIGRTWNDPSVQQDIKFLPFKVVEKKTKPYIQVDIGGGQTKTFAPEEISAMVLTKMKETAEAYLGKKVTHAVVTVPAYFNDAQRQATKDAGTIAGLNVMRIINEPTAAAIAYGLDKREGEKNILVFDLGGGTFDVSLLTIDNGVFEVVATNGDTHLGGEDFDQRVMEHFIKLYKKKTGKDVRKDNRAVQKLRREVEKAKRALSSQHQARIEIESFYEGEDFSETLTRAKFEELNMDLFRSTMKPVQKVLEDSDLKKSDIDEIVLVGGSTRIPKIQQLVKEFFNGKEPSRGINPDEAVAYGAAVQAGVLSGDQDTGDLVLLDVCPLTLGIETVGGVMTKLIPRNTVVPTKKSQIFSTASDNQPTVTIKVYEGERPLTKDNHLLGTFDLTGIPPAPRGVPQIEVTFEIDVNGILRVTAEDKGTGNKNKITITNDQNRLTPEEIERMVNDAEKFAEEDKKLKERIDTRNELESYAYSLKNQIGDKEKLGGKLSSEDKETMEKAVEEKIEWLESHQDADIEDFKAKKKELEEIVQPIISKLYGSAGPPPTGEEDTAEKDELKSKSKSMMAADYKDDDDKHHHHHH
Sequence of FLJ00385 protein (Fragment), immunoglobulin heavy constant mu (human) (P01871 other isoform, or with tags, fused parts or gaps limits assumed): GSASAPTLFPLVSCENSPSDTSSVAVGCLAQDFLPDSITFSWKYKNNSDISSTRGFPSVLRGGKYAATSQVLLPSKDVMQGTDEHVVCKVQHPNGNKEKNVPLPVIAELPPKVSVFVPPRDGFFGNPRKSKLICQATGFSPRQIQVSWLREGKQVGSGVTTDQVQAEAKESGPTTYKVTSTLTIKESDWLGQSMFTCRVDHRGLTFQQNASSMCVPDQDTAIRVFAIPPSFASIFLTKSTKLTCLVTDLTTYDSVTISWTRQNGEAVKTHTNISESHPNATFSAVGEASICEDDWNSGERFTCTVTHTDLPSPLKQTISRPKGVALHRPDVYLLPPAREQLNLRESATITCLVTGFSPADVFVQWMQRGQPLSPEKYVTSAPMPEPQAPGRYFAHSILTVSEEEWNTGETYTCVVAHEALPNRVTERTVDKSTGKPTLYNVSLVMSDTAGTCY
Sequence of Heat shock 70 kDa protein 1L (human) (P34931 whole entry, canonical isoform): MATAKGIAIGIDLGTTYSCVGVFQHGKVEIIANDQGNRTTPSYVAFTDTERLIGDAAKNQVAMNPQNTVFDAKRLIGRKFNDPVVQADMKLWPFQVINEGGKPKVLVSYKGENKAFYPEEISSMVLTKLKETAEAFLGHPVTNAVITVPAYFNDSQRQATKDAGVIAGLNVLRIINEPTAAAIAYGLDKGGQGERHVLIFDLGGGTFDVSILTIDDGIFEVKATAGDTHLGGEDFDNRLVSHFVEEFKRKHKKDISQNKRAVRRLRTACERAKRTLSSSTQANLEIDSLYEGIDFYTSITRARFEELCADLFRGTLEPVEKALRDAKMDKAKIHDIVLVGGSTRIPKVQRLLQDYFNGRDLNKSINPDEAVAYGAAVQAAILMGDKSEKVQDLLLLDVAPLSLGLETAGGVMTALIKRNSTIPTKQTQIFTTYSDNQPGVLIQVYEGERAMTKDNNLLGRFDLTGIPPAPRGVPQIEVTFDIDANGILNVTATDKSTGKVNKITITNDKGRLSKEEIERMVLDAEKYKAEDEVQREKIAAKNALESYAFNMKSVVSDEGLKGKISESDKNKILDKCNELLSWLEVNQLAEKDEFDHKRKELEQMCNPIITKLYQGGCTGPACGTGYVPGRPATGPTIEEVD
Sequence of Hypothetical protein/Heat shock 70 kDa protein 5 (glucose-regulated protein, 78 kDa = GRP78 = BiP = HSPA5), as identified in eluates (human) (P11021 19-654 limits assumed): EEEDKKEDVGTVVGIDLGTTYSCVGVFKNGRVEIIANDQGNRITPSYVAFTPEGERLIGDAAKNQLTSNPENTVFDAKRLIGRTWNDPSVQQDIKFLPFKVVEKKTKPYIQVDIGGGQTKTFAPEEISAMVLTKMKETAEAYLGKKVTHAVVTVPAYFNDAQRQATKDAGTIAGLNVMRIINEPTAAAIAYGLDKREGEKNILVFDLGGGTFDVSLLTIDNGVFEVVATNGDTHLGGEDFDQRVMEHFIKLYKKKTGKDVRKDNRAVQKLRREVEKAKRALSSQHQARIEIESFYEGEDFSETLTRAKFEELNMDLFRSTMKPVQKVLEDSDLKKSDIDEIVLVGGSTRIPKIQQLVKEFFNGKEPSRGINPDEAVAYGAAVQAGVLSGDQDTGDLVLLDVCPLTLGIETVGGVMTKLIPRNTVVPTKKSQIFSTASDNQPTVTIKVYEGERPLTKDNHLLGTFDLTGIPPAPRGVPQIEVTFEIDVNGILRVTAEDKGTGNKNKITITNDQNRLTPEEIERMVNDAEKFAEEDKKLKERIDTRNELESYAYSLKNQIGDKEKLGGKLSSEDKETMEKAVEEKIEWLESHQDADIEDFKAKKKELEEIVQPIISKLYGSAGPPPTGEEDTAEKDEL
Sequence of Apolipoprotein A-I precursor (human) (P02647 25-267 limits assumed): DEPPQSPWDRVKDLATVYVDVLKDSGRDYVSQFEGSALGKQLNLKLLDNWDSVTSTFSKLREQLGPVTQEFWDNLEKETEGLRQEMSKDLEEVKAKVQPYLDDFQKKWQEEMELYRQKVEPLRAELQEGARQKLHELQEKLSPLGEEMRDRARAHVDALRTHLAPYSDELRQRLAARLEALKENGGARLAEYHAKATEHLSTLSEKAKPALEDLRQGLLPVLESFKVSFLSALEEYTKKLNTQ
Sequence of IGHM protein, immunoglobulin heavy chain mu (heavy chain disease protein) (human) (P01871 other isoform, or with tags, fused parts or gaps limits assumed): as the sequence (P01871 other isoform, or with tags, fused parts or gaps limits assumed) above
Sequence of Immunoglobulin lambda variable 3-25/V2-17 protein (Fragment) (human) (P01717 20-112 limits assumed): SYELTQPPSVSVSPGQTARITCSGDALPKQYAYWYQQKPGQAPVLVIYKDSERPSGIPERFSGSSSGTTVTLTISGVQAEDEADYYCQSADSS
Sequence of Histidine-rich glycoprotein precursor (human) (P04196 19-525 limits assumed): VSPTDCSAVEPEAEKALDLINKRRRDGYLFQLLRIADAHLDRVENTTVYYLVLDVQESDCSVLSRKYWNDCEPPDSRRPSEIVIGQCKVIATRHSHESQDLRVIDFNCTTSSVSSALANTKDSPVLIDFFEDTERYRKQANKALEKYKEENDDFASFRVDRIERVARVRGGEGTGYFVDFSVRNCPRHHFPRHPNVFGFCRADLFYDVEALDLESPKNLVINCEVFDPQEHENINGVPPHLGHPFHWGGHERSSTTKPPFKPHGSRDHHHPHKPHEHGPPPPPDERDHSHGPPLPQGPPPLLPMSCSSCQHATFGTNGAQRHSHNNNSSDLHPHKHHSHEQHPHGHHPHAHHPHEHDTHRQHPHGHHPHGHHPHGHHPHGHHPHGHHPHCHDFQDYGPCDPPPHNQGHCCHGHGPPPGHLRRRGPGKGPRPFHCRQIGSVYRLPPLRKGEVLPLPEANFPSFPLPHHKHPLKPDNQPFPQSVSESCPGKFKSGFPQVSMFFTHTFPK
Sequence of Haptoglobin precursor (human) (P00738 19-406 limits assumed): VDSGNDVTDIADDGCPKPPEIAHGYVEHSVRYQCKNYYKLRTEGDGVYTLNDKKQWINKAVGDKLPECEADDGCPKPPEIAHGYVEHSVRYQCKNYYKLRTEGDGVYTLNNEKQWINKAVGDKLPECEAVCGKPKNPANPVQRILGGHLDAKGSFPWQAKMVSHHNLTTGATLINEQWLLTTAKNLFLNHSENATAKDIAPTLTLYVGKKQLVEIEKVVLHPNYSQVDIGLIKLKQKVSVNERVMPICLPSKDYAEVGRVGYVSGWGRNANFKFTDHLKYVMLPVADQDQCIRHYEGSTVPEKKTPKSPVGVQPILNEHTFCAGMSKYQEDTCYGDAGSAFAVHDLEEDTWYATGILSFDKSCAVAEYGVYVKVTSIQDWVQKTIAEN
Sequence of Immunoglobulin heavy constant gamma 3 (G3m marker)/Ig gamma-3 chain C region (human) (P01860 other isoform, or with tags, fused parts or gaps limits assumed): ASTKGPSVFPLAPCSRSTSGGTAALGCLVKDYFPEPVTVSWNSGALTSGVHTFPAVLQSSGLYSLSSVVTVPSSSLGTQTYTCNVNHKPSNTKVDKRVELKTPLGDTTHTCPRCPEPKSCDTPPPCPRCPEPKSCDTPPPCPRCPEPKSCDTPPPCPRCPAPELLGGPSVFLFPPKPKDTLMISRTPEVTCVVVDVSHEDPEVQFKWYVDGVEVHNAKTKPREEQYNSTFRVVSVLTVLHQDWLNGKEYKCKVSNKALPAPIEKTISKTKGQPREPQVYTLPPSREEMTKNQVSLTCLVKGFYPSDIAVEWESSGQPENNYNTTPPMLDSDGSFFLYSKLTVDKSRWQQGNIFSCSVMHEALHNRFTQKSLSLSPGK
Sequence of Hypothetical protein DKFZp686I04196 (Fragment)/Immunoglobulin heavy constant gamma 2 (G2m marker)/Ig gamma-2 chain C region (human) [IgG part: P01859] (P01859 other isoform, or with tags, fused parts or gaps limits assumed): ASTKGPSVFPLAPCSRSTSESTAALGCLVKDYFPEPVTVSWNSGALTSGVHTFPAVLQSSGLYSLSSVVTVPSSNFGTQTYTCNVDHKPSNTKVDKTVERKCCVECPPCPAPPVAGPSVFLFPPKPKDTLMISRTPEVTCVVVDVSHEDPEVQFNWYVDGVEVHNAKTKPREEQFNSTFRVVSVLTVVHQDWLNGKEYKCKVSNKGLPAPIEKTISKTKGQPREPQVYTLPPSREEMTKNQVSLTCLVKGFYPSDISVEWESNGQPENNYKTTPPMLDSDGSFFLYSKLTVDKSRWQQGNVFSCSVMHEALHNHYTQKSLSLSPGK
Sequence of IGKV1-5 protein, immunoglobulin kappa variable 1-5 (human) (P01602 23-117 limits assumed): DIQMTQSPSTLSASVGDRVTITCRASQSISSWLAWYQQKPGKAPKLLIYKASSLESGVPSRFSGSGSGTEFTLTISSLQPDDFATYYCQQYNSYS
Sequence of Neutrophil defensin 1 precursor (human) (P59665 65-94 limits assumed): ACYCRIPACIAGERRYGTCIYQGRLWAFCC

# of peptides [1]: 1 peptides | # of peptides [2]: 8 peptides | # of peptides [3]: 6 peptides | # of peptides [4]: 4 peptides | # of peptides [5]: 1 peptides | # of peptides [6]: 2 peptides | # of peptides [7]: 1 peptides | # of unique peptides [8]: 2 peptides | # of unique peptides [9]: 1 peptides | # of unique peptides [10]: 1 peptides | # of peptides [11]: 31 peptides | # of unique peptides [12]: 1 peptides | # of unique peptides [13]: 1 peptides | # of unique peptides [14]: 1 peptides | # of unique peptides [15]: 1 peptides | # of unique peptides [16]: 2 peptides | # of unique peptides [17]: 5 peptides | # of unique peptides [18]: 8 peptides | # of unique peptides [19]: 1 peptides | # of unique peptides [20]: 2 peptides | # of unique peptides [21]: 1 peptides | # of unique peptides [22]: 3 peptides | # of unique peptides (Histone H3.2 (human)): 1 peptides | # of unique peptides [23]: 1 peptides | # of unique peptides [24]: 1 peptides | # of unique peptides [25]: 19 peptides | # of unique peptides [26]: 1 peptides | # of unique peptides [27]: 2 peptides | # of unique peptides [28]: 1 peptides
Substance: recombinant human BiP with C-terminal linker, FLAG-tag and His-tag (BiP-FLAG-His) (from UniProt P11021 19-654)
